In test [1] the target is human FcγRIIIa (F158 allele) (human) (UniProt P08637). Nature of the test: MSD.
Test [2] has as its target human FcγRIIIa (V158 allele) (human) (UniProt P08637). The test can be described thus: MSD.
Test [3] addresses human FcγRIIIb (human) (UniProt O75015). The test can be described thus: MSD.
Test [4] concerns the target human FcγRIIa (H131 allele) (human) (UniProt P12318). Nature of the test: MSD.
Test [5] deals with human FcγRIIa (R131 allele) (human) (UniProt P12318). The test can be described thus: MSD.
Sequence of human FcγRIIa (R131 allele) (human) (P12318 34-218 H167R limits assumed): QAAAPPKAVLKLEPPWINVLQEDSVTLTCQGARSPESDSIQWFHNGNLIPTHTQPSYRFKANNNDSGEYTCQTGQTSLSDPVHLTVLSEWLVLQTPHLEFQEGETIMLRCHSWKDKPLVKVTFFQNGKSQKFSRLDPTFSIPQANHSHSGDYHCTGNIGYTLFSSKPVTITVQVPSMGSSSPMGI
Test [6] addresses human FcγRIIb (human) (UniProt P31994). Nature of the test: MSD electrochemiluminescence binding assay; column IIB.
For test [7], the target named is human FcRn (human) (UniProt P55899). Nature of the test: MSD electrochemiluminescence binding assay; column FcRn.
Sequence of human FcRn (human) (P55899 24-297 limits assumed, chain 1 of 2): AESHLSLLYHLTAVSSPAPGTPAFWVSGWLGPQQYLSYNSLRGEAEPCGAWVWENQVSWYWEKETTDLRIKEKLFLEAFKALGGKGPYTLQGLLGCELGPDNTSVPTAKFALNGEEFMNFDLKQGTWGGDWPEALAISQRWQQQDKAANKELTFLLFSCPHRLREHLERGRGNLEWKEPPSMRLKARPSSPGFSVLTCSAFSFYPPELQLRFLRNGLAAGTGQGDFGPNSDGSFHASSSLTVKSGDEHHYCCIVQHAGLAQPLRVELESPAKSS
Sequence of human FcRn (human) (chain, as listed by the source limits assumed, chain 2 of 2): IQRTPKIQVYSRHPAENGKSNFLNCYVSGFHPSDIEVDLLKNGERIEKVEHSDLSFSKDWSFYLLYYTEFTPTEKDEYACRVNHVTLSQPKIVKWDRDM
Test [8] deals with human FcγRIIIb (human) (UniProt O75015). Nature of the test: MSD electrochemiluminescence binding assay; column IIIB.
Sequence of human FcγRIIIb (human) (O75015 17-200 limits assumed): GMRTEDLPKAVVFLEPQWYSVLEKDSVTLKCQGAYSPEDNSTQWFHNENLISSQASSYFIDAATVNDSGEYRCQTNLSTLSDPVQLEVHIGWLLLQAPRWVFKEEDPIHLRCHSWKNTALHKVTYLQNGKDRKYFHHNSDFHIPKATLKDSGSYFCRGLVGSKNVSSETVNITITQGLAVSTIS
In test [9] the target is human FcγRIIa (H131 allele) (human) (UniProt P12318). Nature of the test: MSD electrochemiluminescence binding assay; column IIA_H.
Sequence of human FcγRIIa (H131 allele) (human) (P12318 34-218 limits assumed): as the sequence (P12318 34-218 H167R limits assumed) above, with R134H counted along it
For test [10], the target named is human FcγRIIa (R131 allele) (human) (UniProt P12318). The test can be described thus: MSD electrochemiluminescence binding assay; column IIA_R.
Test [11] has as its target human FcγRIIIa (F158 allele) (human) (UniProt P08637). Nature of the test: MSD electrochemiluminescence binding assay; column IIIA_F.
In test [12] the target is human FcγRIIIa (V158 allele) (human) (UniProt P08637). Nature of the test: MSD electrochemiluminescence binding assay; column IIIA_V.
Sequence of human FcγRIIIa (V158 allele) (human) (P08637 17-208 F176V limits assumed): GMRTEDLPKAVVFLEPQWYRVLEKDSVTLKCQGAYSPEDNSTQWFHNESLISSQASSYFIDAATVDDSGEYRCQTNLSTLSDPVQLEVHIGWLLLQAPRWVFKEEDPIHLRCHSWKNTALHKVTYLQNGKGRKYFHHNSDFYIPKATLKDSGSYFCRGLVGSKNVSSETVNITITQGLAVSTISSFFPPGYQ
Test [13] concerns the target human FcγRIIb (human) (UniProt P31994). The test can be described thus: MSD.
The target in the next test is human C1q (human) (UniProt P02745). Nature of the test: MSD [cont'd].
Sequence of human C1q (human) (P02745 23-245 limits assumed, chain 1 of 3): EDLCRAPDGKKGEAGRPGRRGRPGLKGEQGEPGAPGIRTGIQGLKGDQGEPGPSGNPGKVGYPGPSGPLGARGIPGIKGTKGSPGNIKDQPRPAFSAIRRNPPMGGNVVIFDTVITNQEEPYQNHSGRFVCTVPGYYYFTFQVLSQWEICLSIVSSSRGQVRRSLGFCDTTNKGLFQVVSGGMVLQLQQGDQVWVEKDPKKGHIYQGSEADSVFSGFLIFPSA
Sequence of human C1q (human) (P02746 28-253 limits assumed, chain 2 of 3, further chain): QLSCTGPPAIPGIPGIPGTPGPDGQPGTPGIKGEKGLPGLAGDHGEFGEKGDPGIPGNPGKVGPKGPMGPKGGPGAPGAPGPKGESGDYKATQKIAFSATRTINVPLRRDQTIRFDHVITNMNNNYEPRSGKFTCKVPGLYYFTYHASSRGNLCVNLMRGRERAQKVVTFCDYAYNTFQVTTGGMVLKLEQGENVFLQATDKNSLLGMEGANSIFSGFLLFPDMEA
Sequence of human C1q (human) (P02747 29-245 limits assumed, chain 3 of 3, further chain): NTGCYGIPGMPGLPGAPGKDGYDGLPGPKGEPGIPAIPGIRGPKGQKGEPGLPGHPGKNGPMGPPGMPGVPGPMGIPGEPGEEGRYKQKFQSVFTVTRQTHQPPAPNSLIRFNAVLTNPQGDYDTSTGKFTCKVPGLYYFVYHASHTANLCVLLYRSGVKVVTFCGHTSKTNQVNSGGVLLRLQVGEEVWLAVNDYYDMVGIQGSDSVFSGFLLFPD
Test [14] concerns the target human FcγRIIIa (F158 allele) (human) (UniProt P08637). Nature of the test: MSD [cont'd].
Test [15] has as its target human FcγRIIIa (V158 allele) (human) (UniProt P08637). Nature of the test: MSD [cont'd].
The target in test [16] is human FcRn (human) (UniProt P55899). Nature of the test: MSD, pH 6 [cont'd].
Test [17] has as its target human FcγRIIIa (V158 allele) (human) (UniProt P08637).
In test [18] the target is human FcRn (human) (UniProt P55899). Nature of the test: MSD [cont'd].
The target of test [19] is human FcγRIIIb (human) (UniProt O75015). Nature of the test: MSD [cont'd].
For test [20], the target named is human FcγRIIa (H131 allele) (human) (UniProt P12318). Nature of the test: MSD [cont'd].
The target in test [21] is human FcγRIIa (R131 allele) (human) (UniProt P12318). The test can be described thus: MSD [cont'd].
Test [22] addresses human FcγRIIb (human) (UniProt P31994). The test can be described thus: MSD [cont'd].

Sequence of human FcγRIIIa (F158 allele) (human) (P08637 17-208 limits assumed): as the sequence (P08637 17-208 F176V limits assumed) above, with V160F counted along it
Sequence of human FcγRIIb (human) (P31994 43-217 limits assumed): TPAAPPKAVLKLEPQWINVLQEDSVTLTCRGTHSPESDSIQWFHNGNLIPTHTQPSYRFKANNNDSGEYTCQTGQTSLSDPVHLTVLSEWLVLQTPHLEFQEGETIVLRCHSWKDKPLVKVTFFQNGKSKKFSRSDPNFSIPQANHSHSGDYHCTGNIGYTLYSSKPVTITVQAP

In the case of G236A_R292P_Y300L-afuc (antibody), the fold-change (reference not given) turned out to be 19.7 fold in [1]; 9.1 fold in [2]; 1.8 fold in the test with human FcγRIIIb (human) [3]; 11.2 fold in test [4]; 2.2 fold in test [5].
Take G236A_Q295E_S298N (antibody): the fold-change in binding vs wild-type IgG1 with human FcγRIIb (human) [6] worked out at 0.23; with human FcRn (human) [7], 0.93; with human FcγRIIIb (human) [8], 0.76; in test [9], 1.82; in test [10], 0.65; in test [11] it was 0.35. For the same substance, in test [12], the fold-change in binding vs wild-type IgG1 was determined as 0.07.
In the case of A431G (antibody), the fold-change to WT Fc in [4] stood at 1.76 fold; in test [5], 1.38 fold; with human FcγRIIb (human) [13], 1.5 fold; with human C1q (human), 0.824 fold; in [14], 1.23 fold; in test [15], 1.61 fold. For the same substance, in the test with human FcRn (human) [16], the fold-change to WT Fc is 0.916 fold.
On to L234D_G236D_K326E (antibody), for which the fold-change in binding vs wild-type IgG1 with human FcγRIIb (human) [6] was determined as 0.28; with human FcRn (human) [7], 0.83; in the test with human FcγRIIIb (human) [8], 0.6; in test [9], 0.14; in test [10], 0.3; in test [11] it was 0.35. For the same substance, the fold-change in binding vs wild-type IgG1 in [12] is 0.05.
G236A_R292P_A431G (antibody): the fold-change to WT Fc in [4] was 5.21 fold; in test [5] it was 0.939 fold; with human FcγRIIb (human) [13], 0.511 fold; in the test with human C1q (human) it was 0.1 fold; in test [14] it was 0.569 fold; in test [15] it was 0.394 fold. In addition, the fold-change to WT Fc in the test with human FcRn (human) [16] came to 0.674 fold.
With C220P (antibody), the fold-change to WT Fc was determined as 1.17 fold in test [4]; 1.04 fold in test [5]; 1.21 fold in the test with human FcγRIIb (human) [13]; 0.761 fold in the test with human C1q (human); 0.99 fold in test [14]; 1.33 fold in test [15]. Also, the fold-change to WT Fc with human FcRn (human) [16] was 0.991 fold.
On to G236S-afuc (antibody), for which, in test [17], the FcγR reporter signaling, fold to wt-fucose [cont'd] came out at 2.86 fold. The fold to wt-fucose was 0.85 fold with human FcRn (human) [18]; 10.6 fold in test [14]; 4.63 fold in [15]; 1.37 fold with human FcγRIIIb (human) [19]; 7.37 fold in test [20]; 4.39 fold in [21]. Besides, the fold to wt-fucose in the test with human FcγRIIb (human) [22] is 1.08 fold.
As for G236A_R292P_G446E (antibody), the fold-change to WT Fc in [4] was 4.54 fold; in test [5] it was 0.986 fold; with human FcγRIIb (human) [13] it was 0.512 fold; with human C1q (human) it was 0.099 fold; in test [14], 0.552 fold; in [15] it was 0.415 fold. Besides, the fold-change to WT Fc with human FcRn (human) [16] turned out to be 0.851 fold.
Regarding R292P_G446E (antibody), the fold-change to WT Fc in test [4] came to 0.628 fold; in test [5] it was 0.45 fold; in the test with human FcγRIIb (human) [13], 0.562 fold; in the test with human C1q (human), 0.391 fold; in test [14], 0.779 fold; in test [15], 0.916 fold. Further, the fold-change to WT Fc with human FcRn (human) [16] is 0.884 fold.
Consider L234D_V264R_K326E (antibody), for which the fold-change in binding vs wild-type IgG1 in the test with human FcγRIIb (human) [6] was found to be 0.5; in the test with human FcRn (human) [7] it was 0.83; in the test with human FcγRIIIb (human) [8] it was 0.6; in test [9], 0.14; in test [10], 0.25; in [11], 0.27. Further, in [12], the fold-change in binding vs wild-type IgG1 turned out to be 0.05.
With G446E (antibody), the fold-change to WT Fc in test [4] is 1.11 fold; in test [5] it was 1.05 fold; in the test with human FcγRIIb (human) [13] it was 1.17 fold; with human C1q (human), 0.84 fold; in [14] it was 1.1 fold; in test [15] it was 1.42 fold. Besides, in the test with human FcRn (human) [16], the fold-change to WT Fc came out at 1.06 fold.
For the substance G236L (antibody), the fold-change to WT Fc in test [4] was determined as 0.435 fold; in test [5], 1.42 fold; with human FcγRIIb (human) [13], 0.395 fold; with human C1q (human) it was 1.48 fold; in [14] it was 0.345 fold; in test [15] it was 0.083 fold. Besides, in the test with human FcRn (human) [16], the fold-change to WT Fc turned out to be 0.949 fold.
On to G236A_A330L_I332E (antibody), for which the fold-change to WT Fc in [4] was 3.6 fold; with human FcγRIIb (human) [13], 0.605 fold; in the test with human C1q (human), -0.004 fold; with human FcRn (human) [16], 0.937 fold.
In the case of P245A_Q295E_S298N (antibody), the fold-change in binding vs wild-type IgG1 is 0.31 with human FcγRIIb (human) [6]; 0.85 with human FcRn (human) [7]; 0.89 in the test with human FcγRIIIb (human) [8]; 0.28 in test [9]; 0.3 in [10]; 0.34 in test [11]. Further, the fold-change in binding vs wild-type IgG1 in [12] amounted to 0.1.
As for G236A_E272Y_S298N (antibody), the fold-change in binding vs wild-type IgG1 with human FcγRIIb (human) [6] is 0.19; in the test with human FcRn (human) [7], 0.98; with human FcγRIIIb (human) [8], 0.62; in test [9] it was 0.63; in test [10] it was 0.38; in test [11], 0.31. The fold-change in binding vs wild-type IgG1 in test [12] stood at 0.06.
Turning to R292P (antibody), the fold-change to WT Fc in [4] came out at 0.577 fold; in test [5], 0.454 fold; in the test with human FcγRIIb (human) [13], 0.541 fold; with human C1q (human) it was 0.549 fold; in test [14], 0.79 fold; in test [15], 0.917 fold. For the same substance, in the test with human FcRn (human) [16], the fold-change to WT Fc is 0.898 fold. Further, the fold-change vs wt in [20] came out at 0.58 fold; in [21], 0.45 fold; with human FcγRIIb (human) [22], 0.54 fold.
In [17], G236A_Y300L-afuc (antibody) gave a FcγR reporter signaling, fold to wt-fucose [cont'd] of 3.49 fold. Also, the fold-change (reference not given) was determined as 30.1 fold in test [1]; 13.7 fold in [2]; 2.6 fold with human FcγRIIIb (human) [3]; 14.9 fold in test [4]; 4 fold in test [5]; 0.9 fold with human FcγRIIb (human) [13]. The fold to wt-fucose was determined as 0.92 fold with human FcRn (human) [18]; 30.1 fold in [14]; 13.7 fold in test [15]; 2.55 fold with human FcγRIIIb (human) [19]; 14.9 fold in [20]; 3.95 fold in test [21]. Further, the fold to wt-fucose with human FcγRIIb (human) [22] was 0.93 fold.
For the substance K334A_Q295E_S298N (antibody), the fold-change in binding vs wild-type IgG1 with human FcγRIIb (human) [6] came out at 0.47; with human FcRn (human) [7] it was 0.91; with human FcγRIIIb (human) [8], 0.93; in [9] it was 0.22; in [10], 0.28; in test [11] it was 0.37. Besides, the fold-change in binding vs wild-type IgG1 in [12] is 0.09.
Take A330L_I332E-afuc (antibody): the fold to wt-fucose in test [14] came out at 191 fold; in test [15] it was 37.8 fold; with human FcγRIIIb (human) [19], 37.4 fold; in test [20], 0.42 fold; in test [21] it was 0.53 fold; with human FcγRIIb (human) [22], 0.61 fold.
G236A_L328V_Q295E-afuc (antibody): the fold-change (reference not given) in test [1] turned out to be 11.8 fold; in [2], 7.4 fold; in the test with human FcγRIIIb (human) [3], 2.4 fold; in test [4], 6.7 fold; in test [5], 9.6 fold.
With L328V_Q295E_S298N (antibody), the fold-change in binding vs wild-type IgG1 came to 0.32 with human FcγRIIb (human) [6]; 1.02 in the test with human FcRn (human) [7]; 0.79 in the test with human FcγRIIIb (human) [8]; 0.26 in [9]; 0.33 in test [10]; 0.28 in test [11]. In addition, in test [12], the fold-change in binding vs wild-type IgG1 turned out to be 0.08.

Values taken from patent publication US20260184814A1, “BROADLY NE[…] INFLUENZA NEURAMINIDASE” (priority 2022, published 2026).
